Sequences and labels used below:
B2: Rad51 (natural protein, S. cerevisiae, UniProt P25454 1-400, looked up)
chain: MSQVQEQHISESQLQYGNGSLMSTVPADLSQSVVDGNGNGSSEDIEATNGSGDGGGLQEQAEAQGEMEDEAYDEAALGSFVPIEKLQVNGITMADVKKLRESGLHTAEAVAYAPRKDLLEIKGISEAKADKLLNEAARLVPMGFVTAADFHMRRSELICLTTGSKNLDTLLGGGVETGSITELFGEFRTGKSQLCHTLAVTCQIPLDIGGGEGKCLYIDTEGTFRPVRLVSIAQRFGLDPDDALNNVAYARAYNADHQLRLLDAAAQMMSESRFSLIVVDSVMALYRTDFSGRGELSARQMHLAKFMRALQRLADQFGVAVVVTNQVVAQVDGGMAFNPDPKKPIGGNIMAHSSTTRLGFKKGKGCQRLCKVVDSPCLPEAECVFAIYEDGVGDPREEDE

The target in assay [1] is B2. As to the kind of experiment: single-molecule ssDNA curtain assay.
Assay [2] concerns the target T1, GFP–Rad55–Rad57 complex (His6–GFP–Rad55 and FLAG–Rad57) (S. cerevisiae, UniProt P38953 1-406; P25301 1-460).
T1 sequence (looked up) 1: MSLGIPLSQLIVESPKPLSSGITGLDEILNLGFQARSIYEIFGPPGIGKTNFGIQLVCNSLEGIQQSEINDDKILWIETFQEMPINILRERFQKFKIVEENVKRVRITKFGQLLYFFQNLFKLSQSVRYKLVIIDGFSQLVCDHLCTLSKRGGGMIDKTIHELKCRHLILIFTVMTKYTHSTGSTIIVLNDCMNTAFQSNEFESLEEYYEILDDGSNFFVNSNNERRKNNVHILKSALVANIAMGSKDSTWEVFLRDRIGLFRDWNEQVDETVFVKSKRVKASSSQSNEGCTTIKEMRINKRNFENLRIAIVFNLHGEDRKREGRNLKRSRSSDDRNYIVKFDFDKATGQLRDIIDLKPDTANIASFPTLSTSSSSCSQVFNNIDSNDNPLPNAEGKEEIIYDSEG
T1 sequence (looked up) 2: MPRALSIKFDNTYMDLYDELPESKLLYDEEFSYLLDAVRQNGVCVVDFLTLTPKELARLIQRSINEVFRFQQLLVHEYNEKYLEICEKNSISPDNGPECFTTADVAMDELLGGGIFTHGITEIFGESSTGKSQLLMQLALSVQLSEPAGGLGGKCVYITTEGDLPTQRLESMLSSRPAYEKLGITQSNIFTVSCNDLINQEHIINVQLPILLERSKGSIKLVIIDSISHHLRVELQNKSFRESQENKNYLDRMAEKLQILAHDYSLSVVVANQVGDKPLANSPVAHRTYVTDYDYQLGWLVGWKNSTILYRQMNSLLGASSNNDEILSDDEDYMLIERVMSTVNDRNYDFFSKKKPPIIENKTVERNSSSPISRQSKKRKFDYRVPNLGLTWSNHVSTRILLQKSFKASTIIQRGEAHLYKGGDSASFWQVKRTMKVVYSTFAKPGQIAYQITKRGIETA
As to the kind of experiment: single-molecule ssDNA curtain assay.

Consider three molecules from publication doi:10.1101/2020.11.04.367136 (bioRxiv, 2020).

B1: GST–Hed1–6xHis–GFP (natural protein, S. cerevisiae, UniProt Q03937 1-162, looked up)
chain: MQQRSNRRSCSYIPLGVHNNAEKSLCTEVAPARKNKRSITTSPIVNINVVERRLFNLELEKQQLRAKNLSENTGGGSPNGGAYLDAKKGVREQDQYQGGPSKELDRLQPPPSMKKSPPRKKKSLKDLIYETNKTFYQVDSNKVKYKVGLSKKQLLPSKTVDN
Take B1: the binding result in assay [1] is recorded as “binds”.
Usually koff stands for the first-order rate constant of dissociation. B2: the off-rate constant (koff) in assay [2] turned out to be 0.00758 s⁻¹.

B3: Rad51–K191R (natural protein, S. cerevisiae, UniProt P25454 1-400, looked up)
chain: MSQVQEQHISESQLQYGNGSLMSTVPADLSQSVVDGNGNGSSEDIEATNGSGDGGGLQEQAEAQGEMEDEAYDEAALGSFVPIEKLQVNGITMADVKKLRESGLHTAEAVAYAPRKDLLEIKGISEAKADKLLNEAARLVPMGFVTAADFHMRRSELICLTTGSKNLDTLLGGGVETGSITELFGEFRTGRSQLCHTLAVTCQIPLDIGGGEGKCLYIDTEGTFRPVRLVSIAQRFGLDPDDALNNVAYARAYNADHQLRLLDAAAQMMSESRFSLIVVDSVMALYRTDFSGRGELSARQMHLAKFMRALQRLADQFGVAVVVTNQVVAQVDGGMAFNPDPKKPIGGNIMAHSSTTRLGFKKGKGCQRLCKVVDSPCLPEAECVFAIYEDGVGDPREEDE
With B3, the koff in assay [2] amounted to 0.0058 s⁻¹.
